# Assays:
# CD44-CFP = CD44-CFP (UniProt P16070); test: FRET or BRET; u-adFRET (acceptor-depletion FRET with linear spectral unmixing) in U251MG cells co-transfected with YFP (Venus) acceptor and CFP donor fusions, fixed in 4% paraformaldehyde; FRET efficiency by region of the cell (cytosol, peripheral, focal adhesion)
# CFP-vinculin = CFP-vinculin (UniProt P18206); test: as above
# UniProt P18206, sequence (P18206 whole entry): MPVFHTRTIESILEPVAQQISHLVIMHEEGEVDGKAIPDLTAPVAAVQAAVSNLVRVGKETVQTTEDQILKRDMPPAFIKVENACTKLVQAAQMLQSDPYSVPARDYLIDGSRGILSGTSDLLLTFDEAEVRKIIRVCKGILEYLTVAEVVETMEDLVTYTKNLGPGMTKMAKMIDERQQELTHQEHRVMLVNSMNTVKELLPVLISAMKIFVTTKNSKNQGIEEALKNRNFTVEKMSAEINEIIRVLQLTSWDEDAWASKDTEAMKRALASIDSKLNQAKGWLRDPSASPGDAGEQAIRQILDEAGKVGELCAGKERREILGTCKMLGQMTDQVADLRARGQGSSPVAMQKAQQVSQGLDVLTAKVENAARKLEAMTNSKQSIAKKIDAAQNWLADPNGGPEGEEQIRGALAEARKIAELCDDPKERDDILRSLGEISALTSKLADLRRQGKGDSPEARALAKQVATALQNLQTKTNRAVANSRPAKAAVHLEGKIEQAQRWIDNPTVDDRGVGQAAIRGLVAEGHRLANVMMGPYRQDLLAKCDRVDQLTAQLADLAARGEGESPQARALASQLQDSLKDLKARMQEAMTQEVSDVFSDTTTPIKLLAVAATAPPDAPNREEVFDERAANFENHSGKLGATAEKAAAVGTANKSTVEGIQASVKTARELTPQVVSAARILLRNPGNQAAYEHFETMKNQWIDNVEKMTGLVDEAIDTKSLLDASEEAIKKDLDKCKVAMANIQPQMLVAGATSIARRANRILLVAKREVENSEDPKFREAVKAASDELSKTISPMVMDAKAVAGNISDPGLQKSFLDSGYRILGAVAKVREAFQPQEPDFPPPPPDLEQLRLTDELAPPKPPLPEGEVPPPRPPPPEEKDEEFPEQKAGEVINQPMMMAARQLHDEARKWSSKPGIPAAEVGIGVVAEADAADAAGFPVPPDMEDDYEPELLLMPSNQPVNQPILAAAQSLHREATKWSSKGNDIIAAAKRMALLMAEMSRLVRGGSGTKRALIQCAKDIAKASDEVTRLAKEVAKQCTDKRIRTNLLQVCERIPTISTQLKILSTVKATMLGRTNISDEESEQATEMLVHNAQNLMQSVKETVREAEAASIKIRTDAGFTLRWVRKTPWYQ
# UniProt P16070, sequence (P16070 21-742): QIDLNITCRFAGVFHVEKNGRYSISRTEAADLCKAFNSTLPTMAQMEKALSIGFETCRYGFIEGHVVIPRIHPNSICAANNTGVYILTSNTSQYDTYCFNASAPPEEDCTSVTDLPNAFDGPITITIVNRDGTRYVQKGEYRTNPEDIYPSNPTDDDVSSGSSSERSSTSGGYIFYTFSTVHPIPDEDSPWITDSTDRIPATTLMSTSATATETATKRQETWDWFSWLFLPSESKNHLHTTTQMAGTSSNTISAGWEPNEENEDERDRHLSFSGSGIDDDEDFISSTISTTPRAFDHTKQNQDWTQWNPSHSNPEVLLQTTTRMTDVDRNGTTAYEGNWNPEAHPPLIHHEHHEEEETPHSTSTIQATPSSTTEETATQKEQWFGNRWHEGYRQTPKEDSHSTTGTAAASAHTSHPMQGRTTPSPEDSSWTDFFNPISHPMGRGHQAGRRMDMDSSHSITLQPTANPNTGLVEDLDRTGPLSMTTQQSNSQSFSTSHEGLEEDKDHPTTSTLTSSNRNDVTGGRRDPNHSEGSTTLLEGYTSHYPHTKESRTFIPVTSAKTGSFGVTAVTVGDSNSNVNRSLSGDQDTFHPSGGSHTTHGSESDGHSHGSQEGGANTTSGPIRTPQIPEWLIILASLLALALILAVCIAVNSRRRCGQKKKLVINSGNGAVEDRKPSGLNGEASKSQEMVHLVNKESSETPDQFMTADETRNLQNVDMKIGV
substance,measurement,setting,value
YFP-hMena (human Mena fused to monomeric Venus) (from UniProt Q8N8S7 1-591) (natural protein),FRET efficiency (cytosol),CD44-CFP,-7
same,FRET efficiency (peripheral),CD44-CFP,-2
same,"FRET efficiency (FA, focal adhesion)",CFP-vinculin,19

# Reference: PMC2651628
